Source: patent publication US20120316071A1 (published 2012)
Values belong to the binder of their own block, whether it stands above or below them.

Tests used:
[1] = molecular target: T1, rHuman HGF R/c-MET/Fc Chimera, CF (R&D Systems Cat#358-MT/CF) (human, UniProt P08581 25-932); test: MSD ECL multispot assay, antigen spotted on plate, Fab in solution; blank spot of this row 348
T1 construct: Bought recombinant protein; also called HGF R/Fc; not shown: Fc of the bought chimera

[2] = molecular target: T2, rHuman Notch-1/Fc Chimera, CF (R&D Systems Cat#3647-TK) (human, UniProt P46531 19-526); test: as above
T2 construct: Bought recombinant protein; not shown: Fc of the bought chimera

[3] = molecular target: T3, rHuman CD44/Fc Chimera, CF (R&D Systems Cat#3660-CD) (human, UniProt P16070 21-220); test: as above
T3 construct: Bought recombinant protein; not shown: Fc of the bought chimera

[4] = molecular target: T4, rHuman IGF-1 sR (insulin-like growth factor-1 soluble receptor), CF (R&D Systems Cat#391-GR) (human, UniProt P08069 31-932); test: as above
T4 construct: Bought recombinant soluble receptor

[5] = molecular target: T5, rHuman Erythropoietin R/Fc Chimera, CF (R&D Systems Cat#963-ER) (human, UniProt P19235 25-250); test: as above
T5 construct: Bought recombinant protein; also called EPO R; EPO R/Fc; not shown: Fc of the bought chimera
T5 sequence (looked up): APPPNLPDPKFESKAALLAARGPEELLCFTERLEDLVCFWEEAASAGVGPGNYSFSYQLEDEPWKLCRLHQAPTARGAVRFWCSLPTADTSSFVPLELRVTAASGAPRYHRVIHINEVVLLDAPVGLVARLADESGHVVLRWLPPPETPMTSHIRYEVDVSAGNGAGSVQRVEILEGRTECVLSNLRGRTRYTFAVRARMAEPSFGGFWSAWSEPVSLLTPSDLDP

[6] = molecular target: T6, Recombinant Human DLL4 (R&D Systems Cat#1506-D4/CF) (human, UniProt Q9NR61 27-524); test: as above
T6 construct: Bought recombinant protein; also called delta-like protein 4; rHuman DLL4

[7] = molecular target: T7, rHuman ErbB2/Fc Chimera, CF (R&D Systems Cat#1129-ER) (human, UniProt P04626 23-652); test: as above
T7 construct: Bought recombinant protein; not shown: Fc of the bought chimera

[8] = molecular target: T8, rHuman EGF R/Fc Chimera, CF (R&D Systems Cat#344-ER) (human, UniProt P00533 25-645); test: as above
T8 construct: Bought recombinant protein; not shown: Fc of the bought chimera

[9] = molecular target: T1, rHuman HGF R/c-MET/Fc Chimera, CF (R&D …); test: MSD ECL multispot assay, antigen spotted on plate, Fab in solution; blank spot of this row 504
[10] = molecular target: T2, rHuman Notch-1/Fc Chimera, CF (R&D …); test: as above
[11] = molecular target: T3, rHuman CD44/Fc Chimera, CF (R&D Systems …); test: as above
[12] = molecular target: T4, rHuman IGF-1 sR (insulin-like growth …); test: as above
[13] = molecular target: T5, rHuman Erythropoietin R/Fc Chimera, CF …; test: as above
[14] = molecular target: T6, Recombinant Human DLL4 (R&D Systems …); test: as above
[15] = molecular target: T7, rHuman ErbB2/Fc Chimera, CF (R&D …); test: as above
[16] = molecular target: T8, rHuman EGF R/Fc Chimera, CF (R&D …); test: as above
[17] = molecular target: T9, rHuman Erythropoietin R/Fc Chimera, CF (R&D Systems Cat#963-ER) (human, UniProt P19235 25-250); test: ECL Multispot (MSD) binding assay, antigen spotted on plate, Fab in solution
T9 construct: Bought recombinant Fc chimera; also called EPO R; EPO R/Fc; Fc part of the bought chimera not given
T9 sequence (looked up): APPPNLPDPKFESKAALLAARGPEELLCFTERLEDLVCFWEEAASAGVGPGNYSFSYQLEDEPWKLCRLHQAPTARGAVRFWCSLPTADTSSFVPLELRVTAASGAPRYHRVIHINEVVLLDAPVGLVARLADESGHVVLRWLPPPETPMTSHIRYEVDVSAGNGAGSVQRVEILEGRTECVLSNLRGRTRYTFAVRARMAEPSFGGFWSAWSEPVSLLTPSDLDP

[18] = molecular target: T10, Recombinant Human DLL4 (R&D Systems Cat#1506-D4/CF) (human, UniProt Q9NR61 27-524); test: as above
T10 construct: Bought recombinant human DLL4; also called delta-like protein 4; Delta-like 4

[19] = molecular target: T11, rHuman ErbB2/Fc Chimera, CF (R&D Systems Cat#1129-ER) (human, UniProt P04626 23-652); test: as above
T11 construct: Bought recombinant Fc chimera; also called human epidermal growth factor 2 receptor; Fc part of the bought chimera not given

[20] = molecular target: T12, rHuman EGF R/Fc Chimera, CF (R&D Systems Cat#344-ER) (human, UniProt P00533 25-645); test: as above
T12 construct: Bought recombinant Fc chimera; also called epidermal growth factor receptor; Fc part of the bought chimera not given

[21] = molecular target: T13, rHuman HGF R/c-MET/Fc Chimera, CF (R&D Systems Cat#358-MT/CF) (human, UniProt P08581 25-932); test: as above
T13 construct: Bought recombinant Fc chimera; also called HGF R/Fc; hepatocyte growth factor receptor; Fc part of the bought chimera not given

[22] = molecular target: T14, rHuman Notch-1/Fc Chimera, CF (R&D Systems Cat#3647-TK) (human, UniProt P46531 19-526); test: as above
T14 construct: Bought recombinant Fc chimera; Fc part of the bought chimera not given

[23] = molecular target: T15, rHuman CD44/Fc Chimera, CF (R&D Systems Cat#3660-CD) (human, UniProt P16070 21-220); test: as above
T15 construct: Bought recombinant Fc chimera; Fc part of the bought chimera not given

[24] = molecular target: T16, rHuman IGF-1 sR, CF (R&D Systems Cat#391-GR) (human, UniProt P08069 31-932); test: as above
T16 construct: Bought recombinant soluble receptor; also called insulin-like growth factor-1 soluble receptor

[25] = molecular target: T17, rHuman P-Cadherin/Fc Chimera, CF (R&D Systems Cat#861-PC) (human, UniProt P22223 108-654); test: as above
T17 construct: Bought recombinant Fc chimera; Fc part of the bought chimera not given

[26] = molecular target: T18, rHuman CD44/Fc Chimera, CF (R&D Systems Cat#3660-CD) (human, UniProt P16070 21-220); test: ECL Multispot (MSD) assay; antigen spotted on plate, Fab in solution;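 also: fab bound 1 h at 20 °C, detected by TAG-labelled antibody electrochemiluminescence, signal relative to each well's blank, ratio of 4 or more marks a hit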
T18 construct: Bought reagent

[27] = molecular target: T19, rHuman IGF-1 sR, CF (R&D Systems Cat#391-GR) (human, UniProt P08069 31-932); test: as above
T19 construct: Bought soluble receptor; the column head 'IGF-1' means IGF-1 sR; also called insulin-like growth factor-1 soluble receptor

[28] = molecular target: T20, rHuman P-Cadherin/Fc Chimera, CF (R&D Systems Cat#861-PC) (human, UniProt P22223 108-654); test: as above
T20 construct: Bought reagent

[29] = molecular target: T21, rHuman Erythropoietin R/Fc Chimera, CF (R&D Systems Cat#963-ER) (human, UniProt P19235 25-250); test: as above
T21 construct: Bought reagent; also called EPO R; Epo R/Fc
T21 sequence (looked up): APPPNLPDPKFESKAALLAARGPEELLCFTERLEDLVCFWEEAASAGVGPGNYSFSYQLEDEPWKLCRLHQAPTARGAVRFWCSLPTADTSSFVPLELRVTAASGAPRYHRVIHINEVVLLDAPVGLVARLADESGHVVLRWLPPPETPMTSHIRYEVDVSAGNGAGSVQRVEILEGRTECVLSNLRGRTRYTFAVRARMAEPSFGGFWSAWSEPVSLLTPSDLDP

[30] = molecular target: T22, Recombinant Human DLL4 (R&D Systems Cat#1506-D4/CF) (human, UniProt Q9NR61 27-524); test: as above
T22 construct: Bought recombinant protein; also called delta-like protein 4; rHuman DLL4

[31] = molecular target: T23, rHuman ErbB2/Fc Chimera, CF (R&D Systems Cat#1129-ER) (human, UniProt P04626 23-652); test: as above
T23 construct: Bought reagent; also called human epidermal growth factor 2 receptor

[32] = molecular target: T24, rHuman EGF R/Fc Chimera, CF (R&D Systems Cat#344-ER) (human, UniProt P00533 25-645); test: as above
T24 construct: Bought reagent; also called epidermal growth factor receptor

[33] = molecular target: T25, rHuman HGF R/c-MET/Fc Chimera, CF (R&D Systems Cat#358-MT/CF) (human, UniProt P08581 25-932); test: as above
T25 construct: Bought reagent; also called HGF R/Fc; hepatocyte growth factor receptor

[34] = molecular target: T26, rHuman Notch-1/Fc Chimera, CF (R&D Systems Cat#3647-TK) (human, UniProt P46531 19-526); test: as above
T26 construct: Bought reagent

- ECL signal [1]: 472
- ECL signal [2]: 439
- ECL signal [3]: 458
- ECL signal [4]: 471
- ECL signal [5]: 601
- ECL signal [6]: 1340
- ECL signal [7]: 425
- ECL signal [8]: 452
- ECL signal [9]: 616
- ECL signal [10]: 611
- ECL signal [11]: 646
- ECL signal [12]: 666
- ECL signal [13]: 845
- ECL signal [14]: 1260
- ECL signal [15]: 573
- ECL signal [16]: 638
B1: Fab VH1-46_IGHD6-6*01_IGHJ1*01 S102A/S103P/S104F/H111F (APFF) & L6_IGKJ1*01 S92C (Fab, V domains shown)
VH: QVQLVQSGAEVKKPGASVKVSCKASGYTFTSYYMHWVRQAPGQGLEWMGIINPSGGSTSYAQKFQGRVTMTRDTSTSTVYMELSSLRSEDTAVYYCAREEYAPFSAEYFQFWGQGTLVTVSS
VL: EIVLTQSPATLSLSPGERATLSCRASQSVSSYLAWYQQKPGQAPRLLIYDASNRATGIPARFSGSGSGTDFTLTISSLEPEDFAVYYCQQRCNWPPWTFGQGTKVEIKR
notes: Fab; also called APFF / S92C

- ECL signal [17]: 543
- ECL signal [18]: 91400
- ECL signal [19]: 377
- ECL signal [20]: 420
- ECL signal [21]: 287
- ECL signal [22]: 541
- ECL signal [23]: 413
- ECL signal [24]: 323
- ECL signal [25]: 402
B2: Fab VH1-46_IGHD6-6*01_IGHJ1*01 S102A/S103P/S104F/H111F (APFF) & L6_IGKJ1*01 S92G (Fab, V domains shown)
VH: QVQLVQSGAEVKKPGASVKVSCKASGYTFTSYYMHWVRQAPGQGLEWMGIINPSGGSTSYAQKFQGRVTMTRDTSTSTVYMELSSLRSEDTAVYYCAREEYAPFSAEYFQFWGQGTLVTVSS
VL: EIVLTQSPATLSLSPGERATLSCRASQSVSSYLAWYQQKPGQAPRLLIYDASNRATGIPARFSGSGSGTDFTLTISSLEPEDFAVYYCQQRGNWPPWTFGQGTKVEIKR
notes: Tested as a Fab made in E. coli; also called APFF / S92G; H:APFF & L6_IGKJ1*01 S92G

- ECL signal [26]: 162
- ECL signal [27]: 175
- ECL signal [28]: 51
- ECL signal [29]: 230
- ECL signal [30]: 1030
- ECL signal [31]: 154
- ECL signal [32]: 208
- ECL signal [33]: 222
- ECL signal [34]: 137
B3: Fab VH1-46_IGHD6-6*01_IGHJ1*01 S102A/S103P/S104F (APF) & L6_IGKJ1*01 Y32S (Fab, V domains shown)
VH: QVQLVQSGAEVKKPGASVKVSCKASGYTFTSYYMHWVRQAPGQGLEWMGIINPSGGSTSYAQKFQGRVTMTRDTSTSTVYMELSSLRSEDTAVYYCAREEYAPFSAEYFQHWGQGTLVTVSS
VL: EIVLTQSPATLSLSPGERATLSCRASQSVSSSLAWYQQKPGQAPRLLIYDASNRATGIPARFSGSGSGTDFTLTISSLEPEDFAVYYCQQRSNWPPWTFGQGTKVEIKR
notes: Fab format as for the parent (CH1 with His6/Flag tags, kappa CL); also called APF / Y32S
